Experimental data as given in the supplement of paper PMC7125110.
± gives the standard error. Variants at the floor of the assay were thinned out.

B1: glmS ribozyme (parent)
chain: AUAAAAGCGCCAGAACUACAGAAAUGUAGUUGACGAGGAGGAGGUUUAUCGAAUUUUCGGCGGAUGCCUCCAAA

Experiments:
Settings in all cases: with glucosamine-6-phosphate
glucosamine-6-phosphate [1] = variants of: B1; test: self-cleavage kobs at 40 uM GlcN6P; higher = faster cleavage; RNA array
Outline: (§1)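 Tiles bearing barcoded ribozyme variants, transcribed in situ by E. coli RNA polymerase on sequenced MiSeq chips, were imaged over ~14 h at 37 °C using a hybridised Cy3 probe. Glucosamine-6-phosphate was supplied at 40 μM to 10 mM in HEPES/KCl/Mg(OAc)2 buffer. kobs came from one- or two-exponential decay fits to normalised per-tile medians, and weighted Michaelis–Menten fits then provided kcat and KM.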

glucosamine-6-phosphate [2] = variants of: B1; test: self-cleavage kobs at 10000 uM GlcN6P; higher = faster cleavage; RNA array
Outline: as §1

glucosamine-6-phosphate [3] = variants of: B1; test: self-cleavage kobs at 160 uM GlcN6P; higher = faster cleavage; RNA array
Outline: as §1

glucosamine-6-phosphate [4] = variants of: B1; test: self-cleavage kobs at 640 uM GlcN6P; higher = faster cleavage; RNA array
Outline: as §1

glucosamine-6-phosphate [5] = variants of: B1; test: self-cleavage kobs at 2500 uM GlcN6P; higher = faster cleavage; RNA array
Outline: as §1

Variant | self-cleavage kobs at 40 uM GlcN6P (glucosamine-6-phosphate [1]) [s⁻¹] | self-cleavage kobs at 10000 uM GlcN6P (glucosamine-6-phosphate [2]) [s⁻¹] | self-cleavage kobs at 160 uM GlcN6P (glucosamine-6-phosphate [3]) [s⁻¹] | self-cleavage kobs at 640 uM GlcN6P (glucosamine-6-phosphate [4]) [s⁻¹] | self-cleavage kobs at 2500 uM GlcN6P (glucosamine-6-phosphate [5]) [s⁻¹]
U30A G59A G60C C71A | < 1e-05 | < 1e-05 | – | – | –
A33G U45A C71A | < 1e-05 | < 1e-05 | – | – | –
A15U G60A C61A G66U | < 1e-05 | – | – | – | –
G9C C10G | < 1e-05 | < 1e-05 | < 1e-05 | < 1e-05 | < 1e-05
A15C A42C | < 1e-05 | < 1e-05 | – | < 1e-05 | –
A12G G40U U54G | < 1e-05 | 0.000231 ± 6e-05 | – | – | –
A23C | 0.00185 ± 0.00044 | 0.0549 ± 0.021 | 0.00277 ± 0.00082 | 0.00459 ± 0.0012 | 0.0102 ± 0.0033
G37A G59U C61U | < 1e-05 | < 1e-05 | – | – | –
U30G G35A | < 1e-05 | < 1e-05 | – | – | < 1e-05
C16U U31A A36G | < 1e-05 | – | – | – | –
A36U U46G A53U | < 1e-05 | < 1e-05 | – | < 1e-05 | < 1e-05
G7A G40C | < 1e-05 | – | < 1e-05 | < 1e-05 | < 1e-05
C58A C61U G66U | < 1e-05 | – | – | – | –
A52G G66C | < 1e-05 | – | – | – | 4.69e-05 ± 1.5e-05
G62U A64U | < 1e-05 | < 1e-05 | – | < 1e-05 | –
G41A U56A | 4.59e-05 ± 9.3e-06 | 0.00063 ± 8.8e-05 | 8.06e-05 ± 1.3e-05 | 0.000252 ± 2.8e-05 | 0.00173 ± 0.00036
G13A C61G C68A C70U | < 1e-05 | – | – | – | –
G43C U46G U69C | < 1e-05 | – | – | – | –
A15C A39G U56G | 4.71e-05 ± 1.6e-05 | 0.00218 ± 0.00029 | – | – | –
A6G G43U C67U | < 1e-05 | < 1e-05 | < 1e-05 | < 1e-05 | –
C34A U57C | < 1e-05 | < 1e-05 | < 1e-05 | – | < 1e-05
A14G C16A U54G | 0.000211 ± 4.8e-05 | 0.00361 ± 0.00067 | – | – | –
A6U A15C G32A G63C A64U | < 1e-05 | – | – | – | –
G13A G51C | < 1e-05 | < 1e-05 | < 1e-05 | – | –

Variant | self-cleavage kobs at 40 uM GlcN6P (glucosamine-6-phosphate [1]) [s⁻¹] | self-cleavage kobs at 10000 uM GlcN6P (glucosamine-6-phosphate [2]) [s⁻¹] | self-cleavage kobs at 160 uM GlcN6P (glucosamine-6-phosphate [3]) [s⁻¹] | self-cleavage kobs at 640 uM GlcN6P (glucosamine-6-phosphate [4]) [s⁻¹] | self-cleavage kobs at 2500 uM GlcN6P (glucosamine-6-phosphate [5]) [s⁻¹]
A52U C58G | < 1e-05 | < 1e-05 | – | < 1e-05 | –
C11U U31A G38U U49A U54G | < 1e-05 | – | – | – | –
G9U U30G | < 1e-05 | < 1e-05 | – | < 1e-05 | –
G13C G35U | < 1e-05 | < 1e-05 | < 1e-05 | – | –
G7U G41U | < 1e-05 | < 1e-05 | < 1e-05 | < 1e-05 | < 1e-05
C8G A39U A53C C58U | < 1e-05 | – | – | – | –
C10U C67U C70U | < 1e-05 | < 1e-05 | – | – | –
G41A C50U G59A | < 1e-05 | < 1e-05 | – | – | –
U49C G63C | < 1e-05 | – | – | < 1e-05 | –
U49C G63A | < 1e-05 | < 1e-05 | < 1e-05 | – | –
G9A G40U C50G | < 1e-05 | – | – | – | –
C16U A33U G51C | < 1e-05 | – | – | – | –
C11A U57A G60U | < 1e-05 | – | – | – | –
C61A A64C C71A | < 1e-05 | < 1e-05 | – | – | –
A12C C58A G63A | < 1e-05 | – | – | – | –
A6C C16U C70U | < 1e-05 | 9.69e-05 ± 1.9e-05 | – | – | –
A36C U45G | < 1e-05 | < 1e-05 | < 1e-05 | < 1e-05 | < 1e-05
A33C A39G G41C A53C | < 1e-05 | < 1e-05 | < 1e-05 | < 1e-05 | < 1e-05
A6C A12G U56C | < 1e-05 | < 1e-05 | – | – | –
U54G U69C | 0.00112 ± 0.00028 | 0.00526 ± 0.0011 | 0.000153 ± 6e-05 | 0.000689 ± 0.00017 | 0.00133 ± 0.00041
G59C C61U G66U | < 1e-05 | < 1e-05 | – | – | –
A14G U30G | 0.001 ± 0.00014 | 0.0807 ± 0.027 | 0.00212 ± 0.00046 | 0.00706 ± 0.0011 | 0.0179 ± 0.0054
C11G G38A | < 1e-05 | – | – | < 1e-05 | < 1e-05
C11A G41C | < 1e-05 | – | < 1e-05 | < 1e-05 | < 1e-05
